Reference: the Human Domainome abundance scans (Beltran et al. 2025)
± gives the uncertainty stated by the source.

B1: Apoptosis-associated speck-like protein containing a CARD, residues 114 to 194; numbered along this chain, Q9ULZ3 (parent)
chain: FIDQHRAALIARVTNVEWLLDALYGKVLTDEQYQAVRAEPTNPSKMRKLFSFTPAWNWTCKDLLLQALRESQSYLVEDLER

Variants of: B1
Test: abundance fitness (aPCA) (normalised: wild type 0, dead -1); higher = more abundant; growth selection in yeast, the domain comes from the species named
Settings: Homo sapiens

| Variant | abundance fitness |
| --- | --- |
| F1R | -0.498 ± 0.26 |
| G25H | -0.213 ± 0.12 |
| G25A | -0.43 ± 0.061 |
| G25I | -0.543 ± 0.22 |
| G25F | -0.931 ± 0.22 |
| G25D | -0.255 ± 0.11 |
| V36S | -0.334 ± 0.064 |
| V36D | -0.79 ± 0.21 |
| V36L | -0.846 ± 0.11 |
| V36I | -0.143 ± 0.13 |
| L9Y | -0.644 ± 0.28 |
| L9K | -0.948 ± 0.25 |
| L9E | -0.76 ± 0.17 |
| L9G | -0.624 ± 0.067 |
| L9P | -0.694 ± 0.14 |
| P43Q | 0.065 ± 0.097 |
| P43K | -0.114 ± 0.086 |
| P43L | -0.263 ± 0.046 |
| A7C | -0.2 ± 0.05 |
| A7R | -0.119 ± 0.045 |
| A7P | -0.437 ± 0.09 |

| Variant | abundance fitness |
| --- | --- |
| A7G | -0.152 ± 0.044 |
| T29A | -0.585 ± 0.36 |
| T29N | -0.338 ± 0.21 |
| A8C | -0.312 ± 0.097 |
| A8P | -0.945 ± 0.16 |
| A8T | -0.239 ± 0.069 |
| A8S | -0.112 ± 0.052 |
| L79M | -0.668 ± 0.19 |
| L79D | -0.508 ± 0.23 |
| L79S | -0.914 ± 0.14 |
| L79W | -1.06 ± 0.22 |
| I2W | -0.619 ± 0.43 |
| R6K | 0.014 ± 0.1 |
| R6C | -0.752 ± 0.17 |
| M46C | -1.02 ± 0.27 |
| M46W | -0.696 ± 0.12 |
| M46V | -0.353 ± 0.054 |
| L63S | -0.61 ± 0.099 |
| L63D | -0.777 ± 0.14 |
| L63K | -0.298 ± 0.11 |
| L63W | -0.543 ± 0.096 |

| Variant | abundance fitness |
| --- | --- |
| W18V | 0.107 ± 0.048 |
| W18T | 0.053 ± 0.066 |
| W18M | 0 ± 0.077 |
| Q72P | -0.987 ± 0.2 |
| Q72K | -0.626 ± 0.15 |
| Q72C | -0.272 ± 0.072 |
| Q72H | 0.009 ± 0.096 |
| Q72T | -0.659 ± 0.11 |
| Q72V | -0.574 ± 0.071 |
| Q72A | -0.191 ± 0.061 |
| Q72M | -0.545 ± 0.12 |
| W56R | -0.574 ± 0.069 |
| W56Y | -1.01 ± 0.38 |
| W56E | -1.13 ± 0.42 |
| W56V | -0.694 ± 0.097 |
| V76L | -0.27 ± 0.072 |
| V76E | -0.838 ± 0.17 |
| V76F | -0.637 ± 0.21 |
| V76A | -0.698 ± 0.08 |
| V76Q | -0.952 ± 0.29 |
| V76Y | -0.538 ± 0.21 |

| Variant | abundance fitness |
| --- | --- |
| V76T | -0.558 ± 0.12 |
| N15W | -0.605 ± 0.17 |
| N15F | -0.997 ± 0.3 |
| N15V | -0.947 ± 0.14 |
| N15M | -0.847 ± 0.17 |
| N15D | -0.142 ± 0.068 |
| L75A | -0.671 ± 0.092 |
| L75E | -0.561 ± 0.14 |
| N57M | -0.399 ± 0.087 |
| N57D | 0.092 ± 0.073 |
| L65M | -0.194 ± 0.091 |
| L65Y | -0.098 ± 0.14 |
| L28W | -0.798 ± 0.06 |
| L28S | -0.812 ± 0.091 |
| L28E | -0.817 ± 0.12 |
| L28I | -0.119 ± 0.068 |
| L28D | -0.935 ± 0.21 |
| D78L | -0.167 ± 0.043 |
| D78K | -0.303 ± 0.073 |
| D78I | -0.186 ± 0.18 |
